Experimental data published in the supplement of paper PMC11811203.

B1: THAP1; numbered along this chain (parent)
chain: MVQSCSAYGCKNRYDKDKPVSFHKFPLTRPSLCKEWEAAVRRKNFKPTKYSSICSEHFTPDCFKRECNNKLLKENAVPTIFLCTEPHDKKEDLLEPQEQLPPPPLPPPVSQVDAAIGLLMPPLQTPVNLSVFCDHNYTVEDTMHQRKRIHQLEQQVEKLRKKLKTAQQRCRRQERQLEKLKEVVHFQKEKDDVSERGYVILPNDYFEIVEVPA

Variants of: B1
Experiment: THAP1 transcriptional activity (GFP+/GFP- enrichment relative to wild-type constructs) (ratio to WT); higher = more THAP1 activity (PSMB5 reporter activation)
Conditions: with PSMB5 promoter-GFP reporter
How it was run: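 A lentiviral site-saturation library covering residues 2–213 of human THAP1, with each position changed to all 20 amino acids, was transduced in duplicate at MOI ~0.3 into THAP1-knockout HEK-293T cells with mClover3 knocked in at endogenous PSMB5. Five days later, BFP+ cells were sorted into GFP-dim and GFP-bright bins and variants were counted by Illumina sequencing of genomic DNA amplicons. Activity is the bright/dim read fold change averaged over replicates and divided by the mean of wild-type synonymous constructs.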

THAP1 transcriptional activity, by site and new letter:
K190: Q 0.807 | R 0.923 | S 0.846 | T 1.35 | V 1.21 | W 0.724 | Y 0.762
D191: A 1.23 | C 0.786 | E 1.36 | F 0.695 | G 1.05 | H 0.987 | I 0.874 | K 1.22 | L 1.26 | M 1.04 | P 1.02 | R 1.31 | S 1.21 | T 1.12 | W 1.06 | Y 0.661
D192: C 0.816 | E 0.835 | F 0.716 | G 1.19 | H 0.799 | I 0.817 | L 1.22 | M 1.27 | N 0.81 | Q 1.23 | R 0.932 | S 0.615 | T 1.12 | V 1.22 | W 1.13
V193: A 0.82 | C 1.04 | D 0.999 | E 0.835 | F 1.06 | G 1.08 | H 0.804 | I 0.883 | K 0.694 | L 1.21 | M 0.559 | N 1.24 | T 1.25 | Y 0.789
S194: A 0.876 | C 0.978 | E 1.11 | G 1.35 | H 1.2 | L 0.808 | M 0.847 | P 1.22 | Q 1.42 | R 0.998 | T 0.865 | V 1.06 | W 1.09
E195: A 0.865 | C 0.903 | D 1.15 | F 0.67 | G 1.07 | H 0.381 | I 0.587 | K 1.37 | L 0.714 | M 0.781 | N 0.808 | P 0.704 | R 1.03 | S 1.16 | T 0.674 | V 1.02 | W 0.467 | Y 0.588
R196: A 0.861 | D 0.823 | E 1.34 | H 1.21 | K 0.966 | M 0.811 | N 0.869 | Q 1.73 | S 1.36 | T 1.47 | V 1.54 | W 0.521 | Y 1.11
G197: A 1.19 | D 0.656 | E 1 | H 1.76 | I 1.03 | K 1.33 | M 1.03 | N 1.56 | P 0.913 | Q 1.29 | R 0.711 | T 1.41 | V 1.8 | W 1.8
Y198: C 0.806 | D 0.763 | E 1.15 | F 0.947 | G 0.536 | I 1.25 | K 0.631 | L 1.02 | M 1.02 | N 1.66 | P 0.891 | Q 1.51 | R 0.78 | T 1.13 | V 1.01 | W 0.672
V199: A 0.703 | C 0.947 | E 0.701 | G 0.935 | H 0.609 | K 0.555 | L 0.908 | M 0.728 | N 0.42 | Q 0.623 | R 0.478 | T 0.697 | W 0.95 | Y 0.918
I200: A 0.558 | C 0.615 | D 0.703 | E 0.762 | F 0.819 | H 0.546 | K 0.283 | L 1.27 | M 0.751 | P 0.688 | Q 1.09 | R 0.412 | T 0.694 | V 1.05 | W 0.555 | Y 0.548
L201: A 0.829 | C 1.03 | D 0.836 | E 0.953 | F 0.809 | G 0.813 | H 0.804 | I 0.905 | K 0.887 | M 0.715 | N 0.624 | P 0.855 | Q 0.653 | R 0.9 | S 0.906 | T 0.898 | V 0.62 | W 0.749 | Y 0.773
P202: A 1.15 | C 0.722 | D 0.802 | E 1.05 | F 0.497 | G 0.98 | H 1.12 | I 0.585 | K 0.636 | L 0.884 | M 1.1 | N 0.854 | Q 0.911 | R 0.824 | S 0.869 | T 0.839 | W 0.577 | Y 1.04
N203: A 1.28 | C 0.834 | D 0.653 | E 1.14 | F 0.728 | G 1.23 | H 1.32 | I 1.01 | M 0.934 | P 0.855 | Q 0.904 | R 0.497 | S 1.54 | T 1.15 | V 0.886 | W 0.535 | Y 1.02
D204: A 1.26 | C 0.753 | E 1.22 | G 0.311 | H 0.501 | I 0.437 | K 0.75 | L 1.04 | M 0.901 | P 0.777 | Q 0.749 | R 0.547 | S 1.82 | T 1.04 | V 1.39 | W 0.525 | Y 0.63
Y205: A 1.86 | C 1.28 | D 0.754 | E 1.09 | F 0.778 | G 1.84 | H 1.38 | I 1.07 | K 0.717 | L 2.1 | M 1.5 | N 0.989 | P 0.805 | Q 1.51 | R 0.621 | S 1.17 | V 0.976 | W 2.45
F206: C 1.5 | D 1.24 | E 1.11 | H 1.05 | I 1.27 | K 1.08 | N 0.873 | P 0.832 | Q 0.86 | R 0.87 | S 1.09 | T 1.04 | V 1.41 | W 1.27 | Y 1.21
E207: A 0.721 | C 1.11 | D 0.615 | F 0.867 | G 0.488 | H 0.501 | I 0.667 | L 1.2 | M 0.796 | N 0.625 | P 0.59 | Q 1.02 | R 0.5 | S 0.559 | T 0.557 | V 1.29 | Y 1.02
I208: A 0.838 | C 1.06 | D 0.924 | E 1.41 | F 0.98 | G 0.803 | K 0.59 | M 1.25 | N 0.926 | P 0.675 | Q 0.835 | R 0.751 | S 1.17 | V 1.2 | W 0.755 | Y 1.14
V209: C 0.679 | D 0.517 | E 0.612 | F 0.531 | H 0.835 | I 0.823 | K 0.98 | L 0.773 | M 0.587 | N 0.716 | P 0.814 | Q 1.67 | R 0.953 | S 0.634 | T 0.765 | W 0.757 | Y 0.755
E210: A 0.354 | C 1.03 | D 1.07 | F 0.823 | G 0.666 | I 1.23 | L 0.744 | M 0.913 | P 0.35 | Q 1.15 | R 0.747 | S 0.594 | T 1.08 | V 1.06 | W 0.686 | Y 1.39
V211: C 0.988 | F 1.01 | G 0.936 | H 1.29 | I 1.34 | L 1.38 | N 0.965 | P 0.462
